Molecular target: flag-tagged Cyclin D1 (UniProt P24385 1-295)
Test: cell-based or functional assay

Chain of flag-tagged Cyclin D1 (P24385 whole entry): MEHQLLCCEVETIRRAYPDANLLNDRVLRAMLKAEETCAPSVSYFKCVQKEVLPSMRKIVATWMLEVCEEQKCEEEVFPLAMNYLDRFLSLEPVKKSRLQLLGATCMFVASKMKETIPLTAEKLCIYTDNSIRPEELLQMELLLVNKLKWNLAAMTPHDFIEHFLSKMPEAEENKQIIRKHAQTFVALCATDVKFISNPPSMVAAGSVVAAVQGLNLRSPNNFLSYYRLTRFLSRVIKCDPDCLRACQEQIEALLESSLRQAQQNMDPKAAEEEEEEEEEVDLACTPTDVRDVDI

B1: myc-tagged full-length EBNA3C (residues 1-992) (natural protein)
chain: MESFEGQGDSRQSPDNERGDNVQTTGEHDQDPGPGPPSSGASERLVPEESYSRDQQPWGQSRGDENRGWMQRIRRRRRRRAALSGHLLDTEDNVPPWLPPHDITPYTARNIRDAACRAVKQSHLQALSNLILDSGLDTQHILCFVMAARQRLQDIRRGPLVAEGGVGWRHWLLTSPSQSWPMGYRTATLRTLTPVPNRVGADSIMLTATFGCQNAARTLNTFSATVWTPPHAGPREQERYAREAEVRFLRGKWQRRYRRIYDLIELCGSLHHIWQNLLQTEENLLDFVRFMGVMSSCNNPAVNYWFHKTIGNFKPYYPWNAPPNENPYHARRGIKEHVIQNAFRKAQIQGLSMLATGGEPRGDATSETSSDEDTGRQGSDVELESSDDELPYIDPNMEPVQQRPVMFVSRVPAKKPRKLPWPTPKTHPVKRTNVKTSDRSDKAEAQSTPERPGPSEQSSVTVEPAHPTPVEMPMVILHQPPPVPKPVPVKPTPPPSRRRRGACVVYDDDVIEVIDVETTEDSSSVSQPNKPHRKHQDGFQRSGRRQKRAAPPTVSPSDTGPPAVGPPAAGPPAAGPPAAGPPAAGPPAAGPPAAGPRILAPLSAGPPAAGPHIVTPPSARPRIMAPPVVRMFMRERQLPQSTGRKPQCFWEMRAGREITQMQQEPSSHLQSATQPTTPRPSWAPSVCALSVMDAGKAQPIESSHLSSMSPTQPISHEEQPRYEDPDAPLDLSLHPDVAAQPAPQAPYQGYQEPPAPQAPYQGYQEPPPPQAPYQGYQEPPAHGLQSSSYPGYAGPWTPRSQHPCYRHPWAPWSQDPVHGHTQGPWDPRAPHLPPQWDGSAGHGQDQVSQFPHLQSETGPPRLQLSLVPLVSSSAPSWSSPQPRAPIRPIPTRFPPPPMPLQDSMAVGCDSSGTACPSMPFASDYSQGAFTPLDINATTPKRPRVEESSHGPARCSQATAEAQEILSDNSEISVFPKDAKQTDYDASTESELD
in vitro kinase activity of flag-Cyclin D1/CDK6 immunoprecipitates toward histone H1, HEK 293T cells transfected with increasing amounts of myc-EBNA3C vector (0, 5, 15 µg): 1.6 fold | in vitro kinase activity of flag-Cyclin D1/CDK6 immunoprecipitates toward recombinant GST-pRb (residues 792-928), HEK 293T cells transfected with increasing amounts of myc-EBNA3C vector (0, 5, 15 µg): 2.3 fold

Source: paper PMC3037348, “Epstein-Barr Virus Nuclear Antigen 3C Facilitates G1-S Transition by Stabilizing and Enhancing the Function of Cyclin D1” (PLoS Pathogens, 2011)
